Source: patent US20220324993A1 (EXCELMAB, published 2022)
Numbering of substitutions follows the chain as printed. Names and notes keep the numbering of the source.

T1: CD20 on Raji cells (CD20+/CD3-) (human, UniProt P11836 1-297)
T1 sequence (looked up): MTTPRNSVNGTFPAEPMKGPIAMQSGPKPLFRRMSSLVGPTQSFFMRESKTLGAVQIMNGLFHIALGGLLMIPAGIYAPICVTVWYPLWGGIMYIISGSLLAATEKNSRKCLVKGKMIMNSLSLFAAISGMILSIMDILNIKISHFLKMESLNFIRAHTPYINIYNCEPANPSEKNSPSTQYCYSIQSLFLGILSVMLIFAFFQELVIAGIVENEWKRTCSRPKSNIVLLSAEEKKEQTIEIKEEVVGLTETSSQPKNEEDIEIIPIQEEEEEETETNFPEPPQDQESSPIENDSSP

B1: CD20×CD3 BsAb V1 (bispecific antibody, human IgG1, kappa, L234A L235A)
heavy 1: EVQLVESGGGLVQPGRSLRLSCAASGFTFNDYAMHWVRQAPGKGLEWVSTISWNSGSIGYADSVKGRFTISRDNAKKSLYLQMNSLRAEDTALYYCAKDIQYGNYYYGMDVWGQGTTVTVSSASTKGPSVFPCAPSSKSTSGGTAALGCLVKDYFPEPVTVSWNSGALTSGVHTFPAVLQSSGLYSLSSVVTVPSSSLGTQTYICNVNHKPSNTKVDKKVEPKSSDKTHTCPPCPAPEAAGGPSVFLFPPKPKDTLMISRTPEVTCVVVDVSHEDPEVKFNWYVDGVEVHNAKTKPREEQYNSTYRVVSVLTVLHQDWLNGKEYKCKVSNKALPAPIEKTISKAKGQPREPQVYTLPPSREEMTKNQVSLTCLVKGFYPSDIAVEWESNGQPENNYKTDDDVLDSDGSFFLYSKLTVDKSRWQQGNVFSCSVMHEALHNHYTQKSLSLSPGK
light 1: not shown
heavy 2: EVQLVESGGGLVQPGGSLKLSCAASGFTFNTYAMNWVRQAPGKGLEWVARIRSKYNNYATYYADSVKDRFTISRDDSKNTAYLQMNNLKTEDTAMYYCVRHGNFGNSYVSWFAYWGQGTLVTVSSASTKGPSVFPLAPSSKSTSGGTAALGCLVKDYFPEPVTVSWNSGALTSGVHTFPAVLQSSGLYSLSSVVTVPSSSLGTQTYICNVNHKPSNTKVDKKVEPKSCDKTHTCPPCPAPEAAGGPSVFLFPPKPKDTLMISRTPEVTCVVVDVSHEDPEVKFNWYVDGVEVHNAKTKPREEQYNSTYRVVSVLTVLHQDWLNGKEYKCKVSNKALPAPIEKTISKAKGQPREPQVYTLPPSRDELTKNQVSLTCLVKGFYPSDIAVEWESNGQPENNYKTTKKKLDSDGSFFLYSKLTVDKSRWQQGNVFSCSVMHEALHNHYTQKSLSLSPGK
light 2: DIQMTQEPSLTTSPGGTVTLTCRSSTGAVTTSNYANWVQEKPGQAPRGLIGGTNKRAPGTPARFSGSLIGGKAALTITGVQPEDEAIYFCALWYSNLWVFGGGTKLEIKRTVAAPSVFIFPPSDEQLKSGTASVVCLLNNFYPREAKVQWKVDNALQSGNSQESVTEQDSKDSTYSLSSTLTLSKADYEKHKVYACEVTHQGLSSPVTKSFNRGEC
notes: Four-chain IgG-like bispecific antibody with a heterodimeric Fc; The anti-CD20 arm is derived from Ofatumumab; the anti-CD3 arm is a humanized murine antibody without the N106T mutation; Expressed in HEK293 cells behind an IL-2 signal peptide supplied by the plasmid; also called CD20×CD3 bispecific antibody V1
B2: CD20×CD3 BsAb V2 (bispecific antibody, human IgG1, kappa, L234A L235A)
heavy 1: B1 heavy 1
light 1: not shown
heavy 2: B1 heavy 2 with N106T
light 2: B1 light 2
notes: also called CD20×CD3 bispecific antibody V2

Assays:
[1] = target: T2, CD3 antigen: 1:1 mixture of human CD3 e protein and human CD3 d protein (Sino Biological Inc.) (human, UniProt P07766 23-126; P04234 22-105); assay: ELISA, CD3 e/d mixture coated, anti-human IgG-HRP detection
T2 construct: Bought recombinant proteins, mixed 1:1 and coated on the ELISA plate; also called antigen CD3
T2 sequence (P07766 23-126 limits assumed, chain 1 of 2): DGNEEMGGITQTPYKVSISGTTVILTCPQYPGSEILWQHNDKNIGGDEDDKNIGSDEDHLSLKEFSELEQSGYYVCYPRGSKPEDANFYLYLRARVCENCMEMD
T2 sequence (P04234 22-105 limits assumed, chain 2 of 2): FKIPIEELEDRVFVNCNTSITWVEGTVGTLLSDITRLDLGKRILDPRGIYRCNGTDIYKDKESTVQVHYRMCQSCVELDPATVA
Protocol: 4) Addition of Samples: the bispecific antibody sample was diluted with PBS to 10 μg/ml and then subjected to a 4-fold gradient dilution at a total of eight concentrations. The diluted samples were added at 100 μL/well, and two replicate wells were used for each antibody concentration. The reaction wells were sealed with a plate sealing film and incubated at room temperature for 1.5 hours. The plate was washed 5 times with 0.05% PBST.
5) Addition of Secondary Antibody: HRP-labeled Goat Anti-Human IgG (H+L) (purchased from Proteintech company, product catalog No. SA00001-17) was diluted with PBS at a ratio of 1:2000 and added in a volume of 100 μL to each well. The reaction wells were sealed with a plate sealing film and incubated at room temperature for 1 hour. The plate was washed 5 times with 0.05% PBST.
7) Stopping: 50 μL of a stop solution (1 M HCl) was added to each well to stop the chromogenic reaction. After 3 min, the OD value of the reaction solution in each well was read at 450 nm on a microplate reader.

[2] = target: T1, CD20 on Raji cells (CD20+/CD3-); assay: cell-based or functional assay

Row | Binder | EC50 [1] [ng/mL] | ADCC activity to kill target tumor cells (Raji and Daudi cells), EC50 [2] [ng/mL] | killing of Raji cells by hPBMCs (LDH release), EC50 [2] [ng/mL]
1 | B1 | 818 | 0.2 | 0.21
2 | B2 | 2100 | 0.2 | 0.24
